Measured values: the supplement of paper PMC9112550, “Optimization of the antimicrobial peptide Bac7 by deep mutational scanning” (BMC Biology, 2022)

Test system: Escherichia coli TOP10
Assay: shrunken log2 fold change of peptide-encoding DNA abundance (4.5 h post-induction vs induction); higher = less antimicrobial activity (less host growth inhibition)
Conditions: time post-induction: 4.5 h; library: site-saturation at positions 5, 18, 19, 20
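Note: peptides expressed intracellularly from a pBAD plasmid library in pooled LB shake-flask culture, induced with 0.3% L-arabinose, DNA abundance read by NGS, three biological replicates, DESeq2 with apeglm shrinkage.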

Row | Sequence | shrunken log2 fold change
1 | RRIRERPPRLPRPRPRPKPMPRP | 0.21
2 | RRIRPRPPRLPRPRPRPERVPRP | 0.451
3 | RRIRCRPPRLPRPRPRPRKLPRP | 0.0902
4 | RRIRWRPPRLPRPRPRPKPYPRP | 3.05
5 | RRIRFRPPRLPRPRPRPLYNPRP | -0.644
6 | RRIRTRPPRLPRPRPRPCPYPRP | -0.411
